Assay results taken from patent publication US20210347873A1 (SHANGHAI PHARMAEXPLORER, published 2021).
Where two headings read alike, the source gives them in different places. Values belong to the molecule of their own block, whether it stands above or below them.

How the values were obtained:
[1] = biological target: biotinylated hBLyS-ECD (human) (UniProt Q9Y275); test: ELISA on captured biotinylated hBLyS-ECD; control antibody 0.00427 nM
[2] = biological target: biotinylated hBLyS-ECD (human) (UniProt Q9Y275); test: BAFF R-coated ELISA, biotinylated hBLyS-ECD bound in presence of control antibody 0 nM
[3] = biological target: extracellular domain of human BLyS protein (hBLyS-ECD), His-tagged, Ala134-Leu285 (human) (UniProt Q9Y275); test: cell-based or functional assay
[4] = biological target: biotinylated hBLyS-ECD (human) (UniProt Q9Y275); test: ELISA on captured biotinylated hBLyS-ECD; control antibody 0.534 nM
[5] = biological target: biotinylated hBLyS-ECD (human) (UniProt Q9Y275); test: BAFF R-coated ELISA, biotinylated hBLyS-ECD bound in presence of control antibody 0.0064 nM
[6] = biological target: biotinylated hBLyS-ECD (human) (UniProt Q9Y275); test: ELISA on captured biotinylated hBLyS-ECD; control antibody 66.7 nM
[7] = biological target: extracellular domain of human BLyS protein (hBLyS-ECD), His-tagged, Ala134-Leu285 (human) (UniProt Q9Y275); test: cell-based or functional assay; remark: listed apart in the source
[8] = biological target: biotinylated hBLyS-ECD (human) (UniProt Q9Y275); test: BAFF R-coated ELISA, biotinylated hBLyS-ECD bound in presence of control antibody 0.8 nM
[9] = biological target: biotinylated hBLyS-ECD (human) (UniProt Q9Y275); test: ELISA on captured biotinylated hBLyS-ECD; control antibody 0.0213 nM
[10] = biological target: biotinylated hBLyS-ECD (human) (UniProt Q9Y275); test: ELISA on captured biotinylated hBLyS-ECD; control antibody 0.107 nM
[11] = biological target: biotinylated hBLyS-ECD (human) (UniProt Q9Y275); test: ELISA on captured biotinylated hBLyS-ECD; control antibody 0 nM (background)
[12] = biological target: biotinylated hBLyS-ECD (human) (UniProt Q9Y275); test: ELISA on captured biotinylated hBLyS-ECD; control antibody 0.534 nM; remark: listed apart in the source
[13] = biological target: biotinylated hBLyS-ECD (human) (UniProt Q9Y275); test: ELISA on captured biotinylated hBLyS-ECD; control antibody 13.3 nM
[14] = biological target: biotinylated hBLyS-ECD (human) (UniProt Q9Y275); test: ELISA on captured biotinylated hBLyS-ECD; control antibody 0.107 nM; remark: listed apart in the source
[15] = biological target: biotinylated hBLyS-ECD (human) (UniProt Q9Y275); test: BAFF R-coated ELISA, biotinylated hBLyS-ECD bound in presence of control antibody 4 nM
[16] = biological target: biotinylated hBLyS-ECD (human) (UniProt Q9Y275); test: BAFF R-coated ELISA, biotinylated hBLyS-ECD bound in presence of control antibody 0 nM; remark: listed apart in the source
[17] = biological target: biotinylated hBLyS-ECD (human) (UniProt Q9Y275); test: ELISA on captured biotinylated hBLyS-ECD; control antibody 2.67 nM
[18] = biological target: biotinylated hBLyS-ECD (human) (UniProt Q9Y275); test: BAFF R-coated ELISA, biotinylated hBLyS-ECD bound in presence of control antibody 20 nM
[19] = biological target: biotinylated hBLyS-ECD (human) (UniProt Q9Y275); test: ELISA on captured biotinylated hBLyS-ECD; control antibody 2.67 nM; remark: listed apart in the source
[20] = biological target: extracellular domain of human BLyS protein (hBLyS-ECD), His-tagged, Ala134-Leu285 (human, UniProt Q9Y275 134-285); test: cell-based or functional assay

OD450 nm [1]: 0.0798 OD450 nm
OD450 nm [2]: 2.37 OD450 nm
Proportion of B lymphocytes in splenocytes (%), in vivo in mice [3]: 38.3%
OD450 nm [4]: 0.062 OD450 nm
OD450 nm [5]: 1.99 OD450 nm
OD450 nm [6]: 0.14 OD450 nm
Proportion of B lymphocytes in splenocytes (%), in vivo in mice [7]: 39.4%
OD450 nm [8]: 1.85 OD450 nm
OD450 nm [9]: 0.0699 OD450 nm
OD450 nm [10]: 0.0662 OD450 nm
OD450 nm [11]: 0.119 OD450 nm
OD450 nm [12]: 0.141 OD450 nm
OD450 nm [13]: 0.103 OD450 nm
OD450 nm [14]: 0.117 OD450 nm
OD450 nm [15]: 2.15 OD450 nm
OD450 nm [16]: 2 OD450 nm
OD450 nm [17]: 0.0652 OD450 nm
OD450 nm [18]: 1.91 OD450 nm
OD450 nm [19]: 0.237 OD450 nm
Molecule: hIgG Control (antibody)

Proportion of B lymphocytes in splenocytes (%), in vivo in mice [20]: 28.2%
B1: c97A3C2H4 (antibody, V domains shown)
VH: EVKLVESGGGLVQPGGSLKLSCAASGFTFSTYTMSWVRQTPEKRLEWVAYISYGGGSTSYPDTVKGRFTISRDNAKNTLYLQMSSLKSEDTAIYYCTRHVTVVENSMDYWGQGTSVTVSS
VL: DILLTQSPDILSVSPGERVSFSCRASQSIGTSIHWYQQRTNGSPRLLIKYVSESFSGTPSRFSGSGSGTAFTLTINSVESEDIADYYCQQTHSWPWTFGGGTKLEIK
notes: also called chimeric antibody c97A3C2H4
